B1: mouse PC5-A (protein)
chain: DYDLSHAQSTYFNDPKWPSMWYMHCSDNTHPCQSDMNIEGAWKRGYTGKNIVVTILDDGIERTHPDLMQNYDALASCDVNGNDLDPMPRYDASNENKHGTRCAGEVAATANNSHCTVGIAFNAKIGGVRMLDGDVTDMVEAKSVSYNPQHVHIYSASWGPDDDGKTVDGPAPLTRQAFENGVRMGRRGLGSVFVWASGNGGRSKDHCSCDGYTNSIYTISISSTAESGKKPWYLEECSSTLATTYSSGESYDKKIITTDLRQRCTDNHTGTSASAPMAAGIIALALEANPFLTWRDVQHVIVRTSRAGHLNANDWKTNAAGFKVSHLYGFGLMDAEAMVMEAEKWTTVPQQHVCVESTDRQIKTIRPNSAVRSIYKASGCSDNPNHHVNYLEHVVVRITITHPRRGDLAIYLTSPSGTRSQLLANRLFDHSMEGFKNWEFMTIHCWGERAAGDWVLEVYDTPSQLRNFKTPGKLKEWSLVLYGTSVQPYSPTNEFPKVERFRYSRVEDPTDDYGAEDYAGPCDPECSEVGCDGPGPDHCSDCLHYYYKLKNNTRICVSSCPPGHYHADKKRCRKCAPNCESCFGSHGNQCLSCKYGYFLNEETSSCVTQCPDGSYEDIKKNVCGKCSENCKACIGFHNCTECKGGLSLQGSRCSVTCEDGQFFNGHDCQPCHRFCATCSGAGADGCINCTEGYVMEEGRCVQSCSVSYYLDHSSEGGYKSCKRCDNSCLTCNGPGFKNCSSCPSGYLLDLGTCQMGAICKDATEESWAEGGFCMLVKKNNLCQRKVLQQLCCKTCTFQG
B2: rat PC7 (protein)
chain: SIHFNDPKYPQQWHLNNRRSPGRDINVTGVWERNVTGRGVTVVVVDDGVEHTVQDIAPNYSPEGSYDLNSNDPDPMPHPDEENGNHHGTRCAGEIAAVPNNSFCAVGVAYGSRIAGIRVLDGPLTDSMEAVAFNKHYQINDIYSCSWGPDDDGKTVDGPHQLGKAALQHGVMAGRQGFGSIFVVASGNGGQHNDNCNYDGYANSIYTVTIGAVDEEGRMPFYAEECASMLAVTFSGGDKMLRSIVTTDWDLQKGTGCTEGHTGTSAAAPLAAGMIALMLQVRPCLTWRDVQHIIVFTATQYEDHRADWLTNEAGFSHSHQHGFGLLNAWRLVNAAKIWTSVPYLASYVSPMLKENKAVPRSPHSLEVLWNVSRTDLEMSGLKTLEHVAVTVSITHPRRGSLELKLFCPSGMMSLIGAPRSMDSDPNGFNDWTFSTVRCWGERARGVYRLVIRDVGDEPLQVGILQQWQLTLYGSTWSPVDIKDRQSLLESAMSGKYLHDDFTLPCPPGLKIPEEDGYSITPNTLKT
B3: [BACES]V5, soluble mouse BACE ending at Thr454 followed by a V5 epitope (protein)
chain: THLGIRLPLRSGLAGPPLGLRLPRETDEESEEPGRRGSFVEMVDNLRGKSGQGYYVEMTRGQPLTKLNILVDTGSSNFAVGAAPHPFLHRYYQRQLSSTYRDLRKGVYVPYTQGKWEGELGTDLVSIPHGPNVTVRANIAAITESDKFFINGSNWEGILGLAYAEIARPDDSLEPFFDSLVKQTHIPNIFSLQLCGAGFPLNQTEALASVGGSMIIGGIDHSLYTGSLWYTPIRREWYYEVIIVRVEINGQDLKMDCKEYNYDKSIVDSGTTNLRLPKKVFEAAVKSIKAASSTEKFPDGFWLGEQLVCWQAGTTPWNIFPVISLYLMGEVTNQSFRITILPQQYLRPVEDVATSQDDCYKFAVSQSSTGTVMGAVIMEGFYVVFDRARKRIGFAVSACHVHDEFRTAAVEGPFVTADMEDCGYNIPQTDESTGKPIPNPLLGLDST
B4: [proBACES]FG/V5, doubly tagged soluble form of mouse proBACE (protein)
chain: DYKDDDDKQGTHLGIRLPLRSGLAGPPLGLRLPRETDEESEEPGRRGSFVEMVDNLRGKSGQGYYVEMTRGQPLTKLNILVDTGSSNFAVGAAPHPFLHRYYQRQLSSTYRDLRKGVYVPYTQGKWEGELGTDLVSIPHGPNVTVRANIAAITESDKFFINGSNWEGILGLAYAEIARPDDSLEPFFDSLVKQTHIPNIFSLQLCGAGFPLNQTEALASVGGSMIIGGIDHSLYTGSLWYTPIRREWYYEVIIVRVEINGQDLKMDCKEYNYDKSIVDSGTTNLRLPKKVFEAAVKSIKAASSTEKFPDGFWLGEQLVCWQAGTTPWNIFPVISLYLMGEVTNQSFRITILPQQYLRPVEDVATSQDDCYKFAVSQSSTGTVMGAVIMEGFYVVFDRARKRIGFAVSACHVHDEFRTAAVEGPFVTADMEDCGYNIPQTDESTGKPIPNPLLGLDST
B5: PACE4 (protein)
chain: QVRSDPQALYFNDPIWSNMWYLHCGDKNSRCRSEMNVQAAWKRGYTGKNVVVTILDDGIERNHPDLAPNYDSYASYDVNGNDYDPSPRYDASNENKHGTRCAGEVAASANNSYCIVGIAYNAKIGGIRMLDGDVTDVVEAKSLGIRPNYIDIYSASWGPDDDGKTVDGPGRLAKQAFEYGIKKGRQGLGSIFVWASGNGGREGDYCSCDGYTNSIYTISVSSATENGYKPWYLEECASTLATTYSSGAFYERKIVTTDLRQRCTDGHTGTSVSAPMVAGIIALALEANSQLTWRDVQHLLVKTSRPAHLKASDWKVNGAGHKVSHFYGFGLVDAEALVVEAKKWTAVPSQHMCVAASDKRPRSIPLVQVLRTTALTSACAEHSDQRVVYLEHVVVRTSISHPRRGDLQIYLVSPSGTKSQLLAKRLLDLSNEGFTNWEFMTVHCWGEKAEGQWTLEIQDLPSQVRNPEKQGKLKEWSLILYGTAEHPYHTFSAHQSRSRMLELSAPELEPPKAALSPSQVEVPEDEEDYTAQSTPGSANILQTSVCHPECGDKGCDGPNADQCLNCVHFSLGSVKTSRKCVSVCPLGYFGDTAARRCRRCHKGCETCSSRAATQCLSCRRGFYHHQEMNTCVTLCPAGFYADESQKNCLKCHPSCKKCVDEPEKCTVCKEGFSLARGSCIPDCEPGTYFDSELIRCGECHHTCGTCVGPGREECIHCAKNFHFHDWKCVPACGEGFYPEEMPGLPHKVCRRCDENCLSCAGSSRNCSRCKTGFTQLGTSCITNHTCSNADETFCEMVKSNRLCERKLFIQFCCRTCLLAG

Assays:
[1] = molecular target: T1, PC cleavage site-spanning peptide of proBACE
T1 chain: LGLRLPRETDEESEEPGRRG

[2] = molecular target: [proBACES-R45A]FG/V5
[3] = molecular target: [proBACES]FG/V5, doubly tagged soluble form of mouse proBACE
[4] = molecular target: T2, 20 aa synthetic peptide spanning the β-secretase cleavage site of βAPPSW
T2 chain: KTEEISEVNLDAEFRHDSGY

Row | Protein | cleavage of the peptide spanning the N-terminal furin-consensus site, RP-HPLC and MALDI-TOF [1] | in vitro processing of the R45A mutant of proBACES, Western blot [2] | in vitro processing of proBACE into BACE, Western blot with FG or V5 antibodies [3] | cleavage of the peptide spanning the N-terminal furin-consensus site [1] | β-secretase activity of affinity-purified proBACE on the synthetic peptide substrate [4]
1 | B1 | The best processing rates were observed with furin and PC5 (not shown) | none of the PCs tested could cleave this form | which was superior to the abilities of PC5 and PACE4 to carry out this cleavage | – | –
2 | B2 | PC7 could barely cleave this sequence, even when a 10-fold excess (as assessed by pERTKR-MCA hydrolysis) of activity was employed | none of the PCs tested could cleave this form | PC7 is barely, if at all, able to perform this reaction | – | –
3 | B3 | – | – | – | no detectable cleavage of this peptide was observed by either crude or partially purified soluble BACE [BACES]V5 (not shown) | –
4 | B4 | – | – | – | – | the resulting material had no detectable activity unless first pre-incubated with furin
5 | B5 | – | none of the PCs tested could cleave this form | which was superior to the abilities of PC5 and PACE4 to carry out this cleavage | – | –
